The series in a line: in vivo. The following applies: BALB/c nude, mouse, in vivo, iv, total radioactivity. An outline of the steps: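 Compounds labelled with ^177Lu in 0.5 M NaOAc pH 4.5 at 95° C for 15 min, then used directly or diluted in PBS with 3 mg/mL ascorbate. BALB/c nude mice bore subcutaneous AR42J flank xenografts (0.05-0.50 g). Organs excised at 4, 24 and 72 h post-injection and γ-counted for % ID and % ID/g.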

*1 amine or outer side, *2 acyl side, *3 side chain or, on linkers, in order; H or OH if unused. Where a SMILES comes first, the peptide text is derived from it. Bridges are numbered along the chain shown (N, C = ends). Side-chain parts run from the residue outwards. [ ]: non-standard residue; d: D form. The star is where a group is joined. X1 = CC(C)(C)C(=O)CN1C(=O)[C@H](N*)CN(C2CCCCC2)c2ccccc21; DOTA = O=C(O)CN1CCN(CC(=O)O)CCN(CC(=O)*)CCN(CC(=O)O)CC1; 3Abz = Nc1cccc(C(=O)O)c1; CO = O=C([*:1])[*:2]

What is called tissue uptake is the percentage of the injected dose found per gram of tissue.

With `C[C@@H](O)[C@H](NC(=O)[C@@H]1CSSC[C@H](NC(=O)[C@@H](Cc2ccccc2)NC(=O)[C@H](CCCCNC(=O)c2cccc(NC(=O)N[C@@H]3CN(C4CCCCC4)c4ccccc4N(CC(=O)C(C)(C)C)C3=O)c2)NC(=O)COCCOCCNC(=O)COCCOCCNC(=O)CN2CCN(CC(=O)O)CCN(CC(=O)O)CCN(CC(=O)O)CC2)C(=O)N[C@@H](Cc2ccc(O)cc2)C(=O)N[C@H](Cc2c[nH]c3ccccc23)C(=O)N[C@@H](CCCCN)C(=O)N[C@@H]([C@@H](C)O)C(=O)N1)C(=O)O` [Compound I-41, DOTA-OEG-OEG-K(Z360)-f[CYwKTC]T-OH], the tissue to tissue ratio at 24 h (T/K Tumor/Kidney ratio) amounted to 1.7; the tissue to tissue ratio at 24 h (T/L Tumor/Liver ratio) came to 10; the tissue to tissue ratio at 24 h (T/P Tumor/Pancreas ratio) is 24; the tissue to tissue ratio at 24 h (T/Sp Tumor/Spleen ratio) came out at 55; the tissue to tissue ratio at 24 h (T/St Tumor/Stomach ratio) was determined as 4. The tissue uptake at 24 h is 9.7 %ID/g (uptake Kidney); 1.5 %ID/g (uptake Liver); 0.7 %ID/g (uptake Pancreas); 0.3 %ID/g (uptake Spleen); 4 %ID/g (uptake Stomach); 16.1 %ID/g (uptake Tumor).
Regarding `C[C@@H](O)[C@H](NC(=O)[C@@H]1CSSC[C@H](NC(=O)[C@@H](Cc2ccccc2)NC(=O)CNC(=O)COCCOCCNC(=O)[C@H](CCCCNC(=O)c2cccc(NC(=O)N[C@@H]3CN(C4CCCCC4)c4ccccc4N(CC(=O)C(C)(C)C)C3=O)c2)NC(=O)CN2CCN(CC(=O)O)CCN(CC(=O)O)CCN(CC(=O)O)CC2)C(=O)N[C@@H](Cc2ccc(O)cc2)C(=O)N[C@H](Cc2c[nH]c3ccccc23)C(=O)N[C@@H](CCCCN)C(=O)N[C@@H]([C@@H](C)O)C(=O)N1)C(=O)O` [Compound I-53, DOTA-K(Z360)-OEG-G-f[CYwKTC]T-OH], the tissue to tissue ratio at 24 h stood at 2.3 (T/K Tumor/Kidney ratio); 6.3 (T/L Tumor/Liver ratio); 18 (T/P Tumor/Pancreas ratio); 52 (T/Sp Tumor/Spleen ratio); 4.8 (T/St Tumor/Stomach ratio). In addition, the tissue uptake at 24 h (uptake Kidney) turned out to be 7.15 %ID/g; the tissue uptake at 24 h (uptake Liver) was found to be 2.57 %ID/g; the tissue uptake at 24 h (uptake Pancreas) worked out at 0.91 %ID/g; the tissue uptake at 24 h (uptake Spleen) worked out at 0.31 %ID/g; the tissue uptake at 24 h (uptake Stomach) was determined as 3.36 %ID/g; the tissue uptake at 24 h (uptake Tumor) is 16.2 %ID/g.
As for `C[C@@H](O)[C@H](NC(=O)[C@@H]1CSSC[C@H](NC(=O)[C@@H](Cc2ccccc2)NC(=O)COCCOCCNC(=O)[C@H](CCCCNC(=O)CCC(C(=O)O)N2CCN(CC(=O)O)CCN(CC(=O)O)CCN(CC(=O)O)CC2)NC(=O)COCCOCCNC(=O)CC[C@H](NC(=O)CC[C@H](NC(=O)c2cccc(NC(=O)N[C@@H]3CN(C4CCCCC4)c4ccccc4N(CC(=O)C(C)(C)C)C3=O)c2)C(=O)O)C(=O)O)C(=O)N[C@@H](Cc2ccc(O)cc2)C(=O)N[C@H](Cc2c[nH]c3ccccc23)C(=O)N[C@@H](CCCCN)C(=O)N[C@@H]([C@@H](C)O)C(=O)N1)C(=O)O` (stereo partly drawn) [^177Lu-1-13, metal not drawn], the tissue uptake at 4 h amounted to 3.6 %ID/g (% ID/g Adrenal gland); 0.64 %ID/g (% ID/g Blood); 0.21 %ID/g (% ID/g Femur); 0.54 %ID/g (% ID/g Heart); 0.89 %ID/g (% ID/g Intestine); 58.6 %ID/g (% ID/g Kidney). Further, the tissue uptake at 4 h runs as follows: (% ID/g Liver) 0.79 %ID/g; (% ID/g Lung) 1.57 %ID/g; (% ID/g Muscle) 0.08 %ID/g; (% ID/g Pancreas) 1.59 %ID/g; (% ID/g Spleen) 0.43 %ID/g; (% ID/g Stomach) 2.23 %ID/g. In addition, the tissue uptake at 4 h (% ID/g Tumor) came out at 14.6 %ID/g. In addition, the tissue uptake at 24 h (% ID/g Adrenal gland) was 0.81 %ID/g; the tissue uptake at 24 h (% ID/g Blood) is 0.09 %ID/g; the tissue uptake at 24 h (% ID/g Femur) was 0.27 %ID/g; the tissue uptake at 24 h (% ID/g Heart) was found to be 0.19 %ID/g; the tissue uptake at 24 h (% ID/g Intestine) was determined as 0.37 %ID/g; the tissue uptake at 24 h (% ID/g Kidney) worked out at 46.7 %ID/g. The tissue uptake at 24 h came to 1.21 %ID/g (% ID/g Liver); 0.43 %ID/g (% ID/g Lung); 0.08 %ID/g (% ID/g Muscle); 1.21 %ID/g (% ID/g Pancreas); 0.47 %ID/g (% ID/g Spleen); 2.19 %ID/g (% ID/g Stomach). Also, the tissue uptake at 24 h (% ID/g Tumor) is 14.8 %ID/g. For the same compound, the tissue uptake at 72 h turned out to be 0.73 %ID/g (% ID/g Adrenal gland); 0.03 %ID/g (% ID/g Blood); 0.14 %ID/g (% ID/g Femur); 0.11 %ID/g (% ID/g Heart); 0.22 %ID/g (% ID/g Intestine); 22.5 %ID/g (% ID/g Kidney). In addition, the tissue uptake at 72 h amounted to 0.52 %ID/g (% ID/g Liver); 0.38 %ID/g (% ID/g Lung); 0.05 %ID/g (% ID/g Muscle); 0.91 %ID/g (% ID/g Pancreas); 0.64 %ID/g (% ID/g Spleen); 1.95 %ID/g (% ID/g Stomach). The tissue uptake at 72 h (% ID/g Tumor) amounted to 6.83 %ID/g.
As for `C[C@@H](O)[C@H](NC(=O)[C@@H]1CSSC[C@H](NC(=O)[C@@H](Cc2ccccc2)NC(=O)CNC(=O)[C@H](CO)NC(=O)CNC(=O)[C@H](CCCCNC(=O)c2cccc(NC(=O)N[C@@H]3CN(C4CCCCC4)c4ccccc4N(CC(=O)C(C)(C)C)C3=O)c2)NC(=O)CN2CCN(CC(=O)O)CCN(CC(=O)O)CCN(CC(=O)O)CC2)C(=O)N[C@@H](Cc2ccc(O)cc2)C(=O)N[C@H](Cc2c[nH]c3ccccc23)C(=O)N[C@@H](CCCCN)C(=O)N[C@@H]([C@@H](C)O)C(=O)N1)C(=O)O` [Compound I-54, DOTA-K(Z360)-G-S-G-f[CYwKTC]T-OH] ({DOTA}-K([3Abz-CO-X1])GSG[dF]CY[dW]KTCT-OH; disulfide 6-11), the tissue to tissue ratio at 24 h worked out at 2.4 (T/K Tumor/Kidney ratio); 2.7 (T/L Tumor/Liver ratio); 9.7 (T/P Tumor/Pancreas ratio); 36 (T/Sp Tumor/Spleen ratio); 6.3 (T/St Tumor/Stomach ratio). For the same compound, the tissue uptake at 24 h by setting is: (uptake Kidney) 10.5 %ID/g; (uptake Liver) 9.6 %ID/g; (uptake Pancreas) 2.65 %ID/g; (uptake Spleen) 0.71 %ID/g; (uptake Stomach) 4.1 %ID/g; (uptake Tumor) 25.8 %ID/g.
Turning to `C[C@@H](O)[C@H](NC(=O)[C@@H]1CSSC[C@H](NC(=O)[C@@H](Cc2ccccc2)NC(=O)COCCOCCNC(=O)COCCOCCNC(=O)[C@H](CCCCNC(=O)c2cccc(NC(=O)N[C@@H]3CN(C4CCCCC4)c4ccccc4N(CC(=O)C(C)(C)C)C3=O)c2)NC(=O)CN2CCN(CC(=O)O)CCN(CC(=O)O)CCN(CC(=O)O)CC2)C(=O)N[C@@H](Cc2ccc(O)cc2)C(=O)N[C@H](Cc2c[nH]c3ccccc23)C(=O)N[C@@H](CCCCN)C(=O)N[C@@H]([C@@H](C)O)C(=O)N1)C(=O)O` [Compound 177Lu-I-39, metal not drawn], the tissue uptake at 4 h was 1.33 %ID/g (% ID/g Adrenal gland); 0.91 %ID/g (% ID/g Blood); 3.38 %ID/g (% ID/g Fat); 0.9 %ID/g (% ID/g Femur); 0.84 %ID/g (% ID/g Heart); 1.8 %ID/g (% ID/g Intestine). Further, the tissue uptake at 4 h turned out to be 25.7 %ID/g (% ID/g Kidney); 6.35 %ID/g (% ID/g Liver); 3.81 %ID/g (% ID/g Lung); 0.3 %ID/g (% ID/g Muscle); 3.71 %ID/g (% ID/g Pancreas); 0.76 %ID/g (% ID/g Spleen). In addition, the tissue uptake at 4 h by setting is: (% ID/g Stomach) 6.28 %ID/g; (% ID/g Tumor) 41.8 %ID/g. Further, the tissue uptake at 24 h by setting is: (% ID/g Adrenal gland) 1.06 %ID/g; (% ID/g Blood) 0.33 %ID/g; (% ID/g Fat) 1.07 %ID/g; (% ID/g Femur) 0.42 %ID/g; (% ID/g Heart) 0.38 %ID/g; (% ID/g Intestine) 0.76 %ID/g. For the same compound, the tissue uptake at 24 h came to 12 %ID/g (% ID/g Kidney); 2.78 %ID/g (% ID/g Liver); 1.85 %ID/g (% ID/g Lung); 0.13 %ID/g (% ID/g Muscle); 0.94 %ID/g (% ID/g Pancreas); 0.31 %ID/g (% ID/g Spleen). For the same compound, the tissue uptake at 24 h stood at 4.63 %ID/g (% ID/g Stomach) and 27.5 %ID/g (% ID/g Tumor). Moreover, the tissue uptake at 72 h worked out at 0.3 %ID/g (% ID/g Adrenal gland); 0.06 %ID/g (% ID/g Blood); 0.27 %ID/g (% ID/g Fat); 0.1 %ID/g (% ID/g Femur); 0.12 %ID/g (% ID/g Heart); 0.24 %ID/g (% ID/g Intestine). The tissue uptake at 72 h was 3.2 %ID/g (% ID/g Kidney); 1.24 %ID/g (% ID/g Liver); 0.87 %ID/g (% ID/g Lung); 0.02 %ID/g (% ID/g Muscle); 0.15 %ID/g (% ID/g Pancreas); 0.07 %ID/g (% ID/g Spleen). For the same compound, the tissue uptake at 72 h (% ID/g Stomach) came to 1.26 %ID/g and the tissue uptake at 72 h (% ID/g Tumor) came out at 9.48 %ID/g.

These data come from patent publication US20260248972A1, “DUAL RECEPTOR TARGETING RADIOLIGANDS AND USES THEREOF RELATED APPLICATIONS” (priority 2022, published 2026).
